Assay [1] deals with phosphorylated Nedd4-2^186–975 (human) (UniProt Q96PU5). The experiment in a line: AUC; sedimentation velocity, 20 °C, 50 mM Tris-HCl pH 8.0, 500 mM NaCl, 1 mM TCEP, 0.01% NP-40; 3 μM pNedd4-2^186–975 alone, 6 μM 14-3-3η alone, mixtures 1:1 and 1:2; 300 nM pNedd4-2^186–975 with 0.06−6 μM 14-3-3η; apparent KD, sw isotherm and Lamm-equation modelling, 14-3-3η dimer + one pNedd4-2.

The target is the same in assay [2]. The assay can be described thus: SEC-SAXS; Superdex 200 Increase 5/150 GL, 20 mM Tris-HCl pH 7.5, 150 mM NaCl, 1 mM TCEP, 3% glycerol, 293.15 K; loaded 2.2 mg/ml Nedd4-2^186–975, 2 mg/ml 14-3-3η, 8.9 mg/ml complex (1:2, 60 μM).

Chain of phosphorylated Nedd4-2^186–975 (human) (Q96PU5 186-975): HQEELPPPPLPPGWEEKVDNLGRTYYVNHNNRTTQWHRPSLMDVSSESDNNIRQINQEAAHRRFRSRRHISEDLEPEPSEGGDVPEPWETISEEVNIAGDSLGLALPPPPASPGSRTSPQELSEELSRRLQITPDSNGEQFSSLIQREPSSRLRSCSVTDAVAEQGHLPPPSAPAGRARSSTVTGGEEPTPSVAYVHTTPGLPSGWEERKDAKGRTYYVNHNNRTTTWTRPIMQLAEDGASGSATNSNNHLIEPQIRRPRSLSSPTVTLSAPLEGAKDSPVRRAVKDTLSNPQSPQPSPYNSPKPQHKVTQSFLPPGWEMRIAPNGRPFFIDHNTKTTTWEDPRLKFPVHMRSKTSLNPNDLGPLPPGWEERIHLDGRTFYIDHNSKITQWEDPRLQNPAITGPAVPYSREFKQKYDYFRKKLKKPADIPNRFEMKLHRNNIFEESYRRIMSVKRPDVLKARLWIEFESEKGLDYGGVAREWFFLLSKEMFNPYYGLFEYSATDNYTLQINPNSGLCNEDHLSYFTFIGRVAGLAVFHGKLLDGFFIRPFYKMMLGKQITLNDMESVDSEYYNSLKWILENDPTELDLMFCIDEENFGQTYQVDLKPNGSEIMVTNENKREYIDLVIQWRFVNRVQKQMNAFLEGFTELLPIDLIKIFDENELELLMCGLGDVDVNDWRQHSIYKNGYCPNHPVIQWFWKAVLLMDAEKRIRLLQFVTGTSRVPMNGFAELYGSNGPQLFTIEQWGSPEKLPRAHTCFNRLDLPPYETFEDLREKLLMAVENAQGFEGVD

Take “14-3-3η (from UniProt Q04917 1-246) (natural protein)”: in assay [1], the Kd is below 50 nM and the stoichiometry N (14-3-3η protomers per Nedd4-2 protomer) was 2. In addition, the stoichiometry N (14-3-3η protomers per Nedd4-2 protomer) in assay [2] was found to be 2.

Values taken from PMC8298602, “14-3-3-protein regulates Nedd4-2 by modulating interactions between HECT and WW domains” (Communications Biology, 2021).
